Reference: patent US20050152926A1

How the values were obtained:
[1] = target: HLA A2 on RMA-S/A2 cells (human); assay: RMA-S/A2 HLA A2 stabilisation, BB7.2 FACS; 100 µM peptide; FIG 3(xx)
[2] = target: HLA A2 on RMA-S/A2 cells (human); assay: RMA-S/A2 HLA A2 stabilisation, BB7.2 FACS; 100 µM peptide; ΔMean minus highest HepB ΔMean
[3] = target: HLA A2 on RMA-S/A2 cells (human); assay: RMA-S/A2 HLA A2 stabilisation, BB7.2 FACS; 1 µM peptide; FIG 1(xii)
[4] = target: HLA A2 on RMA-S/A2 cells (human); assay: RMA-S/A2 HLA A2 stabilisation, BB7.2 FACS; 1 µM peptide; ΔMean minus highest HepB ΔMean
[5] = target: HLA A2 on RMA-S/A2 cells (human); assay: RMA-S/A2 HLA A2 stabilisation, BB7.2 FACS; 100 µM peptide; FIG 1(xxii)
[6] = target: HLA A2 on RMA-S/A2 cells (human); assay: RMA-S/A2 HLA A2 stabilisation, BB7.2 FACS; 100 µM peptide; FIG 1(xxv)
[7] = target: HLA A2 on RMA-S/A2 cells (human); assay: RMA-S/A2 HLA A2 stabilisation, BB7.2 FACS; 10 µM peptide; FIG 2(xi)
[8] = target: HLA A2 on RMA-S/A2 cells (human); assay: RMA-S/A2 HLA A2 stabilisation, BB7.2 FACS; 10 µM peptide; ΔMean minus highest HepB ΔMean
[9] = target: HLA A2 on RMA-S/A2 cells (human); assay: RMA-S/A2 HLA A2 stabilisation, BB7.2 FACS; 100 µM peptide; FIG 3(xxiii)
[10] = target: HLA A2 on RMA-S/A2 cells (human); assay: RMA-S/A2 HLA A2 stabilisation, BB7.2 FACS; 100 µM peptide; FIG 3(xxi)
[11] = target: HLA A2 on RMA-S/A2 cells (human); assay: RMA-S/A2 HLA A2 stabilisation, BB7.2 FACS; 100 µM peptide; FIG 1(xxi)
[12] = target: HLA A2 on RMA-S/A2 cells (human); assay: RMA-S/A2 HLA A2 stabilisation, BB7.2 FACS; 100 µM peptide; FIG 2(x)
[13] = target: HLA A2 on RMA-S/A2 cells (human); assay: RMA-S/A2 HLA A2 stabilisation, BB7.2 FACS; 100 µM peptide; FIG 3(xix)
[14] = target: HLA A2 on RMA-S/A2 cells (human); assay: RMA-S/A2 HLA A2 stabilisation, BB7.2 FACS; 100 µM peptide; FIG 3(xxii)
[15] = target: HLA A2 on RMA-S/A2 cells (human); assay: RMA-S/A2 HLA A2 stabilisation, BB7.2 FACS; 100 µM peptide; FIG 3(xxiv)
[16] = target: HLA A2 on RMA-S/A2 cells (human); assay: RMA-S/A2 HLA A2 stabilisation, BB7.2 FACS; 100 µM peptide; FIG 1(xxvi)
[17] = target: HLA A2 on RMA-S/A2 cells (human); assay: RMA-S/A2 HLA A2 stabilisation, BB7.2 FACS; 100 µM peptide; FIG 3(xxv)
[18] = target: HLA A2 on RMA-S/A2 cells (human); assay: RMA-S/A2 HLA A2 stabilisation, BB7.2 FACS; 100 µM peptide; FIG 2(xix)

B1: CH51 (peptide)
peptide: NLSRQAFFA
modifications: not checked
B1 was tested, and the Mean 2 [1] was 311, the Δ Mean [1] was 179 and the High - B [2] was 19.

B2: CH3 (peptide)
peptide: VLNLFFSAL
modifications: not checked
Work on B2 yielded a Mean 2 [3] of 419, a Δ Mean [3] of 224 and a High - B [4] of 0.

B3: CH16 (peptide)
peptide: VQLAYVFDV
modifications: not checked
Binder B3 has a Mean 2 [5] of 433, a Δ Mean [5] of 232 and a High - B [2] of 0.

B4: CH19 (peptide)
peptide: LLLTLGYAV
modifications: not checked
For B4, the Mean 2 [6] was 436, the Δ Mean [6] was 240 and the High - B [2] was 0.

B5: CH22 (peptide)
peptide: WLFDLRFSV
modifications: not checked
B5 was tested, and the Mean 2 [7] was 390, the Δ Mean [7] was 227 and the High - B [8] was 73.

B6: CH54 (peptide)
peptide: ALWKENQAL
modifications: not checked
In the case of B6, the Δ Mean [9] is reported as 251 and the High - B [2] is reported as 91.

B7: CH52 (peptide)
peptide: SLLEEHPVV
modifications: not checked
For B7, the Mean 2 [10] was 396, the Δ Mean [10] was 249 and the High - B [2] was 89.

B8: CH15 (peptide)
peptide: YLTSYSPYV
modifications: not checked
For B8, the Mean 2 [11] was 557, the Δ Mean [11] was 322 and the High - B [2] was 76.

B9: CH21 (peptide)
peptide: TLWGSFVDV
modifications: not checked
In the case of B9, the Mean 2 [12] is reported as 440, the Δ Mean [12] is reported as 275 and the High - B [2] is reported as 121.

B10: CH50 (peptide)
peptide: SLCAQSSYV
modifications: not checked
Binder B10 has a Mean 2 [13] of 381, a Δ Mean [13] of 251 and a High - B [2] of 91.

B11: CH53 (peptide)
peptide: NLWSHYTDL
modifications: not checked
With B11 the Mean 2 [14] was 350, the Δ Mean [14] was 209 and the High - B [2] was 48.

B12: CH55 (peptide)
peptide: ALWGHNVLL
modifications: not checked
With B12 the Mean 2 [15] was 411, the Δ Mean [15] was 258 and the High - B [2] was 98.

B13: CH20 (peptide)
peptide: ALMLLNNYV
modifications: not checked
In the case of B13, the Mean 2 [16] is reported as 578, the Δ Mean [16] is reported as 384 and the High - B [2] is reported as 138.

B14: CH56 (peptide)
peptide: NLAGGILSV
modifications: not checked
Binder B14 has a Mean 2 [17] of 383, a Δ Mean [17] of 240 and a High - B [2] of 80.

B15: CH34 (peptide)
peptide: KLLKDHFDL
modifications: not checked
B15 gave a Mean 2 [18] of 390, a Δ Mean [18] of 235 and a High - B [2] of 81.
